Results on one substance are retold here after patent US20220098635A1.

Assay [1] concerns the target Thiolated streptavidin (UniProt P22629). Put plainly: single-molecule conductance distribution (counts against Log G, fitted peaks); two-Avitag phi29 polymerase without flexible linker wired with biotin-streptavidin; the same distribution as 52 in Fig. 5B.
Assay [2] has the same target. Description: single-molecule conductance distribution (counts against Log G, fitted peaks); bis-biotinylated phi29 polymerase in a junction of palladium electrodes coated with thiolated streptavidin.

Sequence of Thiolated streptavidin (P22629 37-163 limits assumed): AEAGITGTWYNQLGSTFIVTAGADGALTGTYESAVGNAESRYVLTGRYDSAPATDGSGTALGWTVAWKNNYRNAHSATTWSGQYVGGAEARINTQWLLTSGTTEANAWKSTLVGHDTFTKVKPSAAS

With “bis-biotinylated ϕ29 polymerase (from UniProt P03680 1-111; P03680 112-279; P03680 280-575) (enzyme)”, in assay [1], the conductance peak (circled feature 1103) worked out at 3.98 nS. The conductance peak (circled feature 53) in assay [2] was determined as 3.98 nS.
